± gives the uncertainty stated by the source.
System: HEK293T
Assay: plasma membrane surface immunostaining intensity (anti-HA, deep receptor scanning) (arbitrary fluorescence units); higher = higher plasma membrane expression

Sequence	plasma membrane surface immunostaining intensity (GPCR class: A)	also measured
MASFSAETNSTDLLSQPWNEPPVILSMVILSLTFLLGLPGNGLVLWVAGLKMQRTVNTIWFLHLTLADLLCCLSLPFSLAHLALQGQWPYGRFLCKLIPSIIVLNMFASVFLLTAISLDRCLVVFKPIWCQNHRNVGMACSICGCIWVVAFVMCIPVFVYREIFTTDNHNRCGYKFGLSSSLDYPDFYGDPLENRSLENIVQPPGEMNDRLDPSSFQTNDHPWTVPTVFQPQTFQRPSADSLPRGSARLTSQNLYSNVFKPADVVSPKIPSGFPIEDHETSPLDNSDAFLSTHLKLFPSASSNSFYESELPQGFQDYYNLGQFTDDDQVPTPLVAITITRLVVGFLLPSVIMIACYSFIVFRMQRGRFAKSQSKTFRVAVVVVAVFLVCWTPYHIFGVLSLLTDPETPLGKTLMSWDHVCIALASANSCFNPFLYALLGKDFRKKARQSIQGILEAAFSEELTRSTHCPSNNVISERNSTTV [C3AR1]	327 ± 41	–
MASLSQLSGHLNYTCGAENSTGASQARPHAYYALSYCALILAIVFGNGLVCMAVLKERALQTTTNYLVVSLAVADLLVATLVMPWVVYLEVTGGVWNFSRICCDVFVTLDVMMCTASILNLCAISIDRYTAVVMPVHYQHGTGQSSCRRVALMITAVWVLAFAVSCPLLFGFNTTGDPTVCSISNPDFVIYSSVVSFYLPFGVTVLVYARIYVVLKQRRRKRILTRQNSQCNSVRPGFPQQTLSPDPAHLELKRYYSICQDTALGGPGFQERGGELKREEKTRNSLSPTIAPKLSLEVRKLSNGRLSTSLKLGPLQPRGVPLREKKATQMVAIVLGAFIVCWLPFFLTHVLNTHCQTCHVSPELYSATTWLGYVNSALNPVIYTTFNIEFRKAFLKILSC [DRD3]	3810 ± 240	–
MASPALAAALAVAAAAGPNASGAGERGSGGVANASGASWGPPRGQYSAGAVAGLAAVVGFLIVFTVVGNVLVVIAVLTSRALRAPQNLFLVSLASADILVATLVMPFSLANELMAYWYFGQVWCGVYLALDVLFCTSSIVHLCAISLDRYWSVTQAVEYNLKRTPRRVKATIVAVWLISAVISFPPLVSLYRQPDGAAYPQCGLNDETWYILSSCIGSFFAPCLIMGLVYARIYRVAKLRTRTLSEKRAPVGPDGASPTTENGLGAAAGAGENGHCAPPPADVEPDESSAAAERRRRRGALRRGGRRRAGAEGGAGGADGQGAGPGAAESGALTASRSPGPGGRLSRASSRSVEFFLSRRRRARSSVCRRKVAQAREKRFTFVLAVVMGVFVLCWFPFFFSYSLYGICREACQVPGPLFKFFFWIGYCNSSLNPVIYTVFNQDFRRSFKHILFRRRRRGFRQ [ADRA2C]	1030 ± 270	–
MASPRSSGQPGPPPPPPPPPARLLLLLLLPLLLPLAPGAWGWARGAPRPPPSSPPLSIMGLMPLTKEVAKGSIGRGVLPAVELAIEQIRNESLLRPYFLDLRLYDTECDNAKGLKAFYDAIKYGPNHLMVFGGVCPSVTSIIAESLQGWNLVQLSFAATTPVLADKKKYPYFFRTVPSDNAVNPAILKLLKHYQWKRVGTLTQDVQRFSEVRNDLTGVLYGEDIEISDTESFSNDPCTSVKKLKGNDVRIILGQFDQNMAAKVFCCAYEENMYGSKYQWIIPGWYEPSWWEQVHTEANSSRCLRKNLLAAMEGYIGVDFEPLSSKQIKTISGKTPQQYEREYNNKRSGVGPSKFHGYAYDGIWVIAKTLQRAMETLHASSRHQRIQDFNYTDHTLGRIILNAMNETNFFGVTGQVVFRNGERMGTIKFTQFQDSREVKVGEYNAVADTLEIINDTIRFQGSEPPKDKTIILEQLRKISLPLYSILSALTILGMIMASAFLFFNIKNRNQKLIKMSSPYMNNLIILGGMLSYASIFLFGLDGSFVSEKTFETLCTVRTWILTVGYTTAFGAMFAKTWRVHAIFKNVKMKKKIIKDQKLLVIVGGMLLIDLCILICWQAVDPLRRTVEKYSMEPDPAGRDISIRPLLEHCENTHMTIWLGIVYAYKGLLMLFGCFLAWETRNVSIPALNDSKYIGMSVYNVGIMCIIGAAVSFLTRDQPNVQFCIVALVIIFCSTITLCLVFVPKLITLRTNPDAATQNRRFQFTQNQKKEDSKTSTSVTSVNQASTSRLEGLQSENHRLRMKITELDKDLEEVTMQLQDTPEKTTYIKQNHYQELNDILNLGNFTESTDGGKAILKNHLDQNPQLQWNTTEPSRTCKDPIEDINSPEHIQRRLSLQLPILHHAYLPSIGGVDASCVSPCVSPTASPRHRHVPPSFRVMVSGL [GABBR2]	–	plasma membrane surface immunostaining intensity (GPCR class: C): 6210 ± 48
MASPSLPGSDCSQIIDHSHVPEFEVATWIKITLILVYLIIFVMGLLGNSATIRVTQVLQKKGYLQKEVTDHMVSLACSDILVFLIGMPMEFYSIIWNPLTTSSYTLSCKLHTFLFEACSYATLLHVLTLSFERYIAICHPFRYKAVSGPCQVKLLIGFVWVTSALVALPLLFAMGTEYPLVNVPSHRGLTCNRSSTRHHEQPETSNMSICTNLSSRWTVFQSSIFGAFVVYLVVLLSVAFMCWNMMQVLMKSQKGSLAGGTRPPQLRKSESEESRTARRQTIIFLRLIVVTLAVCWMPNQIRRIMAAAKPKHDWTRSYFRAYMILLPFSETFFYLSSVINPLLYTVSSQQFRRVFVQVLCCRLSLQHANHEKRLRVHAHSTTDSARFVQRPLLFASRRQSSARRTEKIFLSTFQSEAEPQSKSQSLSLESLEPNSGAKPANSAAENGFQEHEV [GPR39]	5870 ± 200	–
MASPSNDSTAPVSEFLLICFPNFQSWQHWLSLPLSLLFLLAMGANTTLLITIQLEASLHQPLYYLLSLLSLLDIVLCLTVIPKVLAIFWFDLRSISFPACFLQMFIMNSFLTMESCTFMVMAYDRYVAICHPLRYPSIITDQFVARAVVFVIARNAFVSLPVPMLSARLRYCAGNIIKNCICSNLSVSKLSCDDITFNQLYQFVAGWTLLGSDLILIVISYSFILKVVLRIKAEGAVAKALSTCGSHFILILFFSTVLLVLVITNLARKRIPPDVPILLNILHHLIPPALNPIVYGVRTKEIKQGIQNLLKRL [OR56A4]	–	plasma membrane surface immunostaining intensity (GPCR class: A (Olfactory)): 419 ± 210
MASSTTRGPRVSDLFSGLPPAVTTPANQSAEASAGNGSVAGADAPAVTPFQSLQLVHQLKGLIVLLYSVVVVVGLVGNCLLVLVIARVRRLHNVTNFLIGNLALSDVLMCTACVPLTLAYAFEPRGWVFGGGLCHLVFFLQPVTVYVSVFTLTTIAVDRYVVLVHPLRRRISLRLSAYAVLAIWALSAVLALPAAVHTYHVELKPHDVRLCEEFWGSQERQRQLYAWGLLLVTYLLPLLVILLSYVRVSVKLRNRVVPGCVTQSQADWDRARRRRTFCLLVVIVVVFAVCWLPLHVFNLLRDLDPHAIDPYAFGLVQLLCHWLAMSSACYNPFIYAWLHDSFREELRKLLVAWPRKIAPHGQNMTVSVVI [PRLHR]	5220 ± 340	–
MASSWPPLELQSSNQSQLFPQNATACDNAPEAWDLLHRVLPTFIISICFFGLLGNLFVLLVFLLPRRQLNVAEIYLANLAASDLVFVLGLPFWAENIWNQFNWPFGALLCRVINGVIKANLFISIFLVVAISQDRYRVLVHPMASRRQQRRRQARVTCVLIWVVGGLLSIPTFLLRSIQAVPDLNITACILLLPHEAWHFARIVELNILGFLLPLAAIVFFNYHILASLRTREEVSRTRCGGRKDSKTTALILTLVVAFLVCWAPYHFFAFLEFLFQVQAVRGCFWEDFIDLGLQLANFFAFTNSSLNPVIYVFVGRLFRTKVWELYKQCTPKSLAPISSSHRKEIFQLFWRN [BDKRB1]	976 ± 180	–
MASTSNVTELIFTGLFQDPAVQSVCFVVFLPVYLATVVGNGLIVLTVSISKSLDSPMYFFLSCLSLVEISYSSTIAPKFIIDLLAKIKTISLEGCLTQIFFFHFFGVAEILLIVVMAYDCYVAICKPLHYMNIISRQLCHLLVAGSWLGGFCHSIIQILVIIQLPFCGPNVIDHYFCDLQPLFKLACTDTFMEGVIVLANSGLFSVFSFLILVSSYIVILVNLRNHSAEGRHKALSTCASHITVVILFFGPAIFLYMRPSSTFTEDKLVAVFYTVITPMLNPIIYTLRNAEVKIAIRRLWSKKENPGRE [OR4B1]	–	plasma membrane surface immunostaining intensity (GPCR class: A (Olfactory)): 131 ± 38
MATELDKIFLILAIAEFIISMLGNVFIGLVNCSEGIKNQKVFSADFILTCLAISTIGQLLVILFDSFLVGLASHLYTTYRLGKTVIMLWHMTNHLTTWLATCLSIFYFFKIAHFPHSLFLWLRWRMNGMIVMLLILSLFLLIFDSLVLEIFIDISLNIIDKSNLTLYLDESKTLYDKLSILKTLLSLTSFIPFSLFLTSLLFLFLSLVRHTRNLKLSSLGSRDSSTEAHRRAMKMVMSFLFLFIVHFFSLQVANWIFFMLWNNKCIKFVMLALNAFPSCHSFILILGNSKLQQTAVRLLWHLRNYTKTPNPLPL [TAS2R42]	–	plasma membrane surface immunostaining intensity (GPCR class: Taste): 114 ± 7.7
MATLPAAETWIDGGGGVGADAVNLTASLAAGAATGAVETGWLQLLDQAGNLSSSPSALGLPVASPAPSQPWANLTNQFVQPSWRIALWSLAYGVVVAVAVLGNLIVIWIILAHKRMRTVTNYFLVNLAFSDASMAAFNTLVNFIYALHSEWYFGANYCRFQNFFPITAVFASIYSMTAIAVDRYMAIIDPLKPRLSATATKIVIGSIWILAFLLAFPQCLYSKTKVMPGRTLCFVQWPEGPKQHFTYHIIVIILVYCFPLLIMGITYTIVGITLWGGEIPGDTCDKYHEQLKAKRKVVKMMIIVVMTFAICWLPYHIYFILTAIYQQLNRWKYIQQVYLASFWLAMSSTMYNPIIYCCLNKRFRAGFKRAFRWCPFIKVSSYDELELKTTRFHPNRQSSMYTVTRMESMTVVFDPNDADTTRSSRKKRATPRDPSFNGCSRRNSKSASATSSFISSPYTSVDEYS [TACR3]	4780 ± 620	–
MAVAPLRGALLLWQLLAAGGAALEIGRFDPERGRGAAPCQAVEIPMCRGIGYNLTRMPNLLGHTSQGEAAAELAEFAPLVQYGCHSHLRFFLCSLYAPMCTDQVSTPIPACRPMCEQARLRCAPIMEQFNFGWPDSLDCARLPTRNDPHALCMEAPENATAGPAEPHKGLGMLPVAPRPARPPGDLGPGAGGSGTCENPEKFQYVEKSRSCAPRCGPGVEVFWSRRDKDFALVWMAVWSALCFFSTAFTVLTFLLEPHRFQYPERPIIFLSMCYNVYSLAFLIRAVAGAQSVACDQEAGALYVIQEGLENTGCTLVFLLLYYFGMASSLWWVVLTLTWFLAAGKKWGHEAIEAHGSYFHMAAWGLPALKTIVILTLRKVAGDELTGLCYVASTDAAALTGFVLVPLSGYLVLGSSFLLTGFVALFHIRKIMKTGGTNTEKLEKLMVKIGVFSILYTVPATCVIVCYVYERLNMDFWRLRATEQPCAAAAGPGGRRDCSLPGGSVPTVAVFMLKIFMSLVVGITSGVWVWSSKTFQTWQSLCYRKIAAGRARAKACRAPGSYGRGTHCHYKAPTVVLHMTKTDPSLENPTHL [FZD9]	–	plasma membrane surface immunostaining intensity (GPCR class: F): 1560 ± 410
MAVGRNNTIVTKFILLGLSDHPQMKIFLFMLFLGLYLLTLAWNLSLIALIKMDSHLHMPMYFFLSNLSFLDICYVSSTAPKMLSDIITEQKTISFVGCATQYFVFCGMGLTECFLLAAMAYDRYAAICNPLLYTVLISHTLCLKMVVGAYVGGFLSSFIETYSVYQHDFCGPYMINHFFCDLPPVLALSCSDTFTSEVVTFIVSVVVGIVSVLVVLISYGYIVAAVVKISSATGRTKAFSTCASHLTAVTLFYGSGFFMYMRPSSSYSLNRDKVVSIFYALVIPVVNPIIYSFRNKEIKNAMRKAMERDPGISHGGPFIFMTLG [OR5A2]	–	plasma membrane surface immunostaining intensity (GPCR class: A (Olfactory)): 267 ± 110
MAVQGSQRRLLGSLNSTPTAIPQLGLAANQTGARCLEVSISDGLFLSLGLVSLVENALVVATIAKNRNLHSPMYCFICCLALSDLLVSGSNVLETAVILLLEAGALVARAAVLQQLDNVIDVITCSSMLSSLCFLGAIAVDRYISIFYALRYHSIVTLPRARRAVAAIWVASVVFSTLFIAYYDHVAVLLCLVVFFLAMLVLMAVLYVHMLARACQHAQGIARLHKRQRPVHQGFGLKGAVTLTILLGIFFLCWGPFFLHLTLIVLCPEHPTCGCIFKNFNLFLALIICNAIIDPLIYAFHSQELRRTLKEVLTCSW [MC1R]	299 ± 43	–

From the supplement of paper PMC12458215
